Results: PMC6528793 (Structure (London, England : 1993), 2017)

B1: AnkB C-terminal ankyrin domain (residues 54-168) (domain or fragment)
chain: HIKRELWGNLMVAARSNNLEEVKKILKKGIDPTQTNSYHLNRTPLLAAIEGKAYQTANYLWRKYTFDPNFKDNYGDSPISLLKKQLANPAFKDKEKKQIRALIRGMQEEKIAQSK

Columns and labels:
crystal structure = target: the molecule itself; experiment: crystal structure
[1] = target: B1; experiment: NMR titration

Q: Does B1 bind (crystal structure)?
A: binds

Q: QEEKI [QEEKI pentapeptide derived from the AnkB C-terminus] was tested. Which Kd [1] did it give?
A: > 8 mM
